Legend:
Experiment in all cases: EMSA
[1] = molecular target: T1, HuR (UniProt Q15717 1-326)
[2] = molecular target: AUF1p37 (Homo sapiens, UniProt Q14103-4 1-287)
[3] = molecular target: T1, HuR; remark: listed apart in the source

T1 sequence (Q15717 whole entry): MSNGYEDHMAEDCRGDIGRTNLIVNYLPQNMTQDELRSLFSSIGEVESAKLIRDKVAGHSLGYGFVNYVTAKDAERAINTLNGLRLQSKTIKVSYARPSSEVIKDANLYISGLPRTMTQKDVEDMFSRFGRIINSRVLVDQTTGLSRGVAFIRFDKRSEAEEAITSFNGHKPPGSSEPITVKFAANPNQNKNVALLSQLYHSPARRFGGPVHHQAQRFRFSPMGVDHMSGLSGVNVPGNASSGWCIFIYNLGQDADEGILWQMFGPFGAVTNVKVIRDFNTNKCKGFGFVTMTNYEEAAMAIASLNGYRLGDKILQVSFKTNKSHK

Row | Binder | Kd [1] [nM] | Kd [2] [nM] | binding result [3]
1 | AAAAAAAUUUUAAGAGCUGG (ssRNA) [Nrf2 3'-UTR Site 3] | 75 ± 20 | 670 ± 82 | –
2 | GCUAGUUUUUUUGUACUAUU (ssRNA) [Nrf2 3'-UTR Site 1] | 20 ± 5 | 6 ± 2 | –
3 | AAAAACUUAUUUAUACUGUU (ssRNA) [Nrf2 3'-UTR Site 2] | – | 25 ± 4 | no binding
